The numbers were not newly measured in PMC1617126, which cites them from elsewhere.

Broadly, the Kd is the concentration at which binding is half-saturated.

For the data set, the target named is protective antigen (PA) (Bacillus anthracis) (UniProt P13423).

For the substance ANTXR2 I domain (from UniProt P58335), the Kd is 0.96 µM.
